For the experiment, the target named is 53BP1 fragment (a.a. 1221-1718) fused to an adenylate cyclase fragment (two-hybrid) (UniProt Q12888). As to the kind of experiment: cell-based or functional assay.
In the case of “i53 + N25F two-hybrid fusion (designed binder)”, the Experiment 1 Average Enrichment was found to be 0.38 log2, the Experiment 1 Rep 1 Enrichment stood at 0.42 log2, the Experiment 1 Rep 2 Enrichment was found to be 0.34 log2 and the Experiment 2 Average Enrichment was -0.04 log2. Further, the Experiment 2 Rep 1 Enrichment was found to be 0.12 log2 and the Experiment 2 Rep 2 Enrichment was -0.2 log2.
In turn, “i53 + N25G two-hybrid fusion (designed binder)” showed an Experiment 1 Average Enrichment of 0.71 log2, an Experiment 1 Rep 1 Enrichment of 1.06 log2, an Experiment 1 Rep 2 Enrichment of 0.35 log2 and an Experiment 2 Average Enrichment of 0.38 log2. The same substance yielded an Experiment 2 Rep 1 Enrichment of 0.57 log2 and an Experiment 2 Rep 2 Enrichment of 0.19 log2.
Consider “i53 + N25I two-hybrid fusion (designed binder)”, for which the Experiment 1 Average Enrichment is 0.83 log2, the Experiment 1 Rep 1 Enrichment is 0.85 log2, the Experiment 1 Rep 2 Enrichment worked out at 0.81 log2 and the Experiment 2 Average Enrichment was 0.4 log2. Moreover, the Experiment 2 Rep 1 Enrichment came out at 0.41 log2 and the Experiment 2 Rep 2 Enrichment amounted to 0.39 log2.
Consider “i53 + N25K two-hybrid fusion (designed binder)”, for which the Experiment 1 Average Enrichment was found to be 0.32 log2, the Experiment 1 Rep 1 Enrichment was determined as 0.11 log2, the Experiment 1 Rep 2 Enrichment was found to be 0.54 log2 and the Experiment 2 Average Enrichment came out at 0.21 log2. This substance displayed an Experiment 2 Rep 1 Enrichment of 0.17 log2 and an Experiment 2 Rep 2 Enrichment of 0.24 log2.
In turn, “i53 + N25L two-hybrid fusion (designed binder)” came in with an Experiment 1 Average Enrichment of 0.43 log2, an Experiment 1 Rep 1 Enrichment of 0.47 log2, an Experiment 1 Rep 2 Enrichment of 0.39 log2 and an Experiment 2 Average Enrichment of 0.23 log2. Besides, the Experiment 2 Rep 1 Enrichment was determined as 0.26 log2 and the Experiment 2 Rep 2 Enrichment turned out to be 0.19 log2.
The substance “i53 + N25M two-hybrid fusion (designed binder)” came in with an Experiment 1 Average Enrichment of 0.5 log2, an Experiment 1 Rep 1 Enrichment of 0.5 log2, an Experiment 1 Rep 2 Enrichment of 0.5 log2 and an Experiment 2 Average Enrichment of 0.45 log2. This substance also gave an Experiment 2 Rep 1 Enrichment of 0.46 log2 and an Experiment 2 Rep 2 Enrichment of 0.43 log2.
As to “i53 + N25Q two-hybrid fusion (designed binder)”, the Experiment 1 Average Enrichment is 0.72 log2, the Experiment 1 Rep 1 Enrichment was 0.24 log2, the Experiment 1 Rep 2 Enrichment was found to be 1.21 log2 and the Experiment 2 Average Enrichment stood at 0.18 log2. The Experiment 2 Rep 1 Enrichment amounted to 0.15 log2 and the Experiment 2 Rep 2 Enrichment turned out to be 0.22 log2.
In the case of “i53 + N25R two-hybrid fusion (designed binder)”, the Experiment 1 Average Enrichment was 0.31 log2, the Experiment 1 Rep 1 Enrichment is 0.25 log2, the Experiment 1 Rep 2 Enrichment amounted to 0.36 log2 and the Experiment 2 Average Enrichment was 0.29 log2. Further, the Experiment 2 Rep 1 Enrichment turned out to be 0.25 log2 and the Experiment 2 Rep 2 Enrichment was determined as 0.34 log2.
For the substance “i53 + N25S two-hybrid fusion (designed binder)”, the Experiment 1 Average Enrichment turned out to be 0.26 log2, the Experiment 1 Rep 1 Enrichment was determined as 0.18 log2, the Experiment 1 Rep 2 Enrichment was found to be 0.34 log2 and the Experiment 2 Average Enrichment is 0.33 log2. Moreover, the Experiment 2 Rep 1 Enrichment amounted to 0.27 log2 and the Experiment 2 Rep 2 Enrichment is 0.38 log2.
“i53 + N25T two-hybrid fusion (designed binder)” came in with an Experiment 1 Average Enrichment of 0.12 log2, an Experiment 1 Rep 1 Enrichment of -0.19 log2, an Experiment 1 Rep 2 Enrichment of 0.44 log2 and an Experiment 2 Average Enrichment of 0.29 log2. The substance further gave an Experiment 2 Rep 1 Enrichment of 0.33 log2 and an Experiment 2 Rep 2 Enrichment of 0.24 log2.
Consider “i53 + N60E two-hybrid fusion (designed binder)”, for which the Experiment 1 Average Enrichment was 0.66 log2, the Experiment 1 Rep 1 Enrichment was 0.9 log2, the Experiment 1 Rep 2 Enrichment was found to be 0.43 log2 and the Experiment 2 Average Enrichment is 0.25 log2. This substance came in with an Experiment 2 Rep 1 Enrichment of 0.13 log2 and an Experiment 2 Rep 2 Enrichment of 0.38 log2.
Regarding “i53 + N60Q two-hybrid fusion (designed binder)”, the Experiment 1 Average Enrichment was found to be 0.08 log2, the Experiment 1 Rep 1 Enrichment was found to be 0.13 log2, the Experiment 1 Rep 2 Enrichment was 0.03 log2 and the Experiment 2 Average Enrichment came to 0.29 log2. The Experiment 2 Rep 1 Enrichment stood at 0.01 log2 and the Experiment 2 Rep 2 Enrichment worked out at 0.58 log2.
“i53 + P19K two-hybrid fusion (designed binder)” showed an Experiment 1 Average Enrichment of 1 log2, an Experiment 1 Rep 1 Enrichment of 2.12 log2, an Experiment 1 Rep 2 Enrichment of -0.12 log2 and an Experiment 2 Average Enrichment of -0.68 log2. The Experiment 2 Rep 1 Enrichment is -0.26 log2 and the Experiment 2 Rep 2 Enrichment is -1.1 log2.
Turning to “i53 + P38A two-hybrid fusion (designed binder)”, the Experiment 1 Average Enrichment worked out at 0.06 log2, the Experiment 1 Rep 1 Enrichment was -0.41 log2, the Experiment 1 Rep 2 Enrichment was determined as 0.53 log2 and the Experiment 2 Average Enrichment is 0 log2. The Experiment 2 Rep 1 Enrichment was -0.16 log2 and the Experiment 2 Rep 2 Enrichment worked out at 0.15 log2.
“i53 + P38C two-hybrid fusion (designed binder)” had an Experiment 1 Average Enrichment of 1.52 log2, an Experiment 1 Rep 1 Enrichment of 1.21 log2, an Experiment 1 Rep 2 Enrichment of 1.83 log2 and an Experiment 2 Average Enrichment of 0.52 log2. The Experiment 2 Rep 1 Enrichment was 0.46 log2 and the Experiment 2 Rep 2 Enrichment is 0.57 log2.
Substance “i53 + P38F two-hybrid fusion (designed binder)” gave an Experiment 1 Average Enrichment of 0.67 log2, an Experiment 1 Rep 1 Enrichment of 0.91 log2, an Experiment 1 Rep 2 Enrichment of 0.43 log2 and an Experiment 2 Average Enrichment of 0.81 log2. This substance registered an Experiment 2 Rep 1 Enrichment of 0.48 log2 and an Experiment 2 Rep 2 Enrichment of 1.13 log2.
Consider “i53 + P38H two-hybrid fusion (designed binder)”, for which the Experiment 1 Average Enrichment was 0.26 log2, the Experiment 1 Rep 1 Enrichment was 0.87 log2, the Experiment 1 Rep 2 Enrichment was -0.35 log2 and the Experiment 2 Average Enrichment stood at 0.58 log2. This substance yielded an Experiment 2 Rep 1 Enrichment of 0.33 log2 and an Experiment 2 Rep 2 Enrichment of 0.83 log2.
“i53 + P38I two-hybrid fusion (designed binder)” registered an Experiment 1 Average Enrichment of 0.66 log2, an Experiment 1 Rep 1 Enrichment of 0.4 log2, an Experiment 1 Rep 2 Enrichment of 0.92 log2 and an Experiment 2 Average Enrichment of 0.64 log2. The substance further came in with an Experiment 2 Rep 1 Enrichment of 1.62 log2 and an Experiment 2 Rep 2 Enrichment of -0.34 log2.
“i53 + P38K two-hybrid fusion (designed binder)”: the Experiment 1 Average Enrichment was -1.02 log2, the Experiment 1 Rep 1 Enrichment is -2.14 log2, the Experiment 1 Rep 2 Enrichment was 0.1 log2 and the Experiment 2 Average Enrichment came to 0.25 log2. The substance further showed an Experiment 2 Rep 1 Enrichment of -0.61 log2 and an Experiment 2 Rep 2 Enrichment of 1.11 log2.
As for “i53 + P38M two-hybrid fusion (designed binder)”, the Experiment 1 Average Enrichment is -0.31 log2, the Experiment 1 Rep 1 Enrichment is -2.07 log2, the Experiment 1 Rep 2 Enrichment worked out at 1.45 log2 and the Experiment 2 Average Enrichment came out at 1.25 log2. Besides, the Experiment 2 Rep 1 Enrichment came to 1.37 log2 and the Experiment 2 Rep 2 Enrichment came to 1.13 log2.
Regarding “i53 + P38N two-hybrid fusion (designed binder)”, the Experiment 1 Average Enrichment was determined as 1.02 log2, the Experiment 1 Rep 1 Enrichment was found to be 2.28 log2, the Experiment 1 Rep 2 Enrichment is -0.25 log2 and the Experiment 2 Average Enrichment is -1.49 log2. Moreover, the Experiment 2 Rep 1 Enrichment is -1.91 log2 and the Experiment 2 Rep 2 Enrichment was -1.07 log2.
In the case of “i53 + P38Q two-hybrid fusion (designed binder)”, the Experiment 1 Average Enrichment is -0.25 log2, the Experiment 1 Rep 1 Enrichment turned out to be 0.85 log2, the Experiment 1 Rep 2 Enrichment is -1.35 log2 and the Experiment 2 Average Enrichment was 0.5 log2. Also, the Experiment 2 Rep 1 Enrichment came out at 1.18 log2 and the Experiment 2 Rep 2 Enrichment is -0.17 log2.
In turn, “i53 + P38S two-hybrid fusion (designed binder)” returned an Experiment 1 Average Enrichment of 0.22 log2, an Experiment 1 Rep 1 Enrichment of 0.19 log2, an Experiment 1 Rep 2 Enrichment of 0.25 log2 and an Experiment 2 Average Enrichment of 0.27 log2. The Experiment 2 Rep 1 Enrichment worked out at 0.56 log2 and the Experiment 2 Rep 2 Enrichment is -0.02 log2.
In turn, “i53 + P38T two-hybrid fusion (designed binder)” had an Experiment 1 Average Enrichment of 0.11 log2, an Experiment 1 Rep 1 Enrichment of 0.95 log2, an Experiment 1 Rep 2 Enrichment of -0.72 log2 and an Experiment 2 Average Enrichment of 0.92 log2. The same substance gave an Experiment 2 Rep 1 Enrichment of 1.27 log2 and an Experiment 2 Rep 2 Enrichment of 0.58 log2.
Regarding “i53 + P38V two-hybrid fusion (designed binder)”, the Experiment 1 Average Enrichment worked out at 1.21 log2, the Experiment 1 Rep 1 Enrichment came out at 1.16 log2, the Experiment 1 Rep 2 Enrichment came out at 1.26 log2 and the Experiment 2 Average Enrichment amounted to 0.05 log2. In addition, the Experiment 2 Rep 1 Enrichment was found to be 0.38 log2 and the Experiment 2 Rep 2 Enrichment is -0.29 log2.
Consider “i53 + P38W two-hybrid fusion (designed binder)”, for which the Experiment 1 Average Enrichment amounted to 0.6 log2, the Experiment 1 Rep 1 Enrichment is 0.61 log2, the Experiment 1 Rep 2 Enrichment is 0.6 log2 and the Experiment 2 Average Enrichment is -0.59 log2. This substance also yielded an Experiment 2 Rep 1 Enrichment of -0.87 log2 and an Experiment 2 Rep 2 Enrichment of -0.32 log2.
In turn, “i53 + P38Y two-hybrid fusion (designed binder)” displayed an Experiment 1 Average Enrichment of 0.74 log2, an Experiment 1 Rep 1 Enrichment of 1.79 log2, an Experiment 1 Rep 2 Enrichment of -0.3 log2 and an Experiment 2 Average Enrichment of 0.31 log2. Besides, the Experiment 2 Rep 1 Enrichment is 0.66 log2 and the Experiment 2 Rep 2 Enrichment is -0.03 log2.
The substance “i53 + P69R two-hybrid fusion (designed binder)” gave an Experiment 1 Average Enrichment of -1.93 log2, an Experiment 1 Rep 1 Enrichment of -2.27 log2, an Experiment 1 Rep 2 Enrichment of -1.59 log2 and an Experiment 2 Average Enrichment of 0.75 log2. Moreover, the Experiment 2 Rep 1 Enrichment was determined as 0.2 log2 and the Experiment 2 Rep 2 Enrichment was 1.29 log2.

Source of the values: patent publication US20230135471A1, “UBIQUITIN VARIANTS WITH IMPROVED AFFINITY FOR 53BP1” (Integrated DNA Technologies, Inc., priority 2021, published 2023).
